Experimental findings from article PMC7338556, “A Truncated Form of HpARI Stabilizes IL-33, Amplifying Responses to the Cytokine” (Frontiers in Immunology, 2020) are described below.

B1: recombinant murine IL-33 (ligand)
chain: SIQGTSLLTQSPASLSTYNDQSVSFVLENGCYVINVDDSGKDQEQDQVLLRYYESPCPASQSGDGVDGKKLMVNMSPIKDTDIWLHANDKDYSVELQRGDVSPPEQAFFVLHKKSSDFVSFECKNLPGTYIGVKDNQLALVEEKDESCNNIMFKLSKI
modifications: Reduced (active) form with free cysteines. Limits are not given; the usual commercial (BioLegend) mature mouse IL-33, Ser109-Ile266, is assumed, matching the candidate chain 109-266
B2: HpARI_CCP1/2 (HpARI truncation lacking CCP3) (domain or fragment)
chain: AGQRCRFTDVERDKGYTGMLLKGRLRKTAGNGRTVELICGRGNHNYTCESGVLKESSPRQARCGCKGILEMLFDMPKEERPSPMYDSVTYDPTPNTPTTVGKDGIWNGVDYRNGSTVKPYCDTGPVINGSSKAVCVSGKWVPTLGVCPK
B3: HpARI_CCP2/3 (HpARI truncation lacking CCP1) (domain or fragment)
chain: TYDPTPNTPTTVGKDGIWNGVDYRNGSTVKPYCDTGPVINGSSKAVCVSGKWVPTLGVCPKMCSIGSLKENGKFVDVTATTKGDELNPPPREQTLIPIVRKVDKDKVQHGVKVVALCKAEDSTTAAEGVQEFECDNGKWKPEPVPCP

The target of experiment [1] is T1, H. polygyrus Alarmin Release Inhibitor (HpARI), full-length (Heligmosomoides polygyrus).
T1 construct: It was cloned into the secretion vector pSecTAG2A, so the native signal peptide may be missing and a vector leader used (surmise); also called full-length HpARI; source: Expi293F cells, transfected (pSecTAG2A), purified from supernatant (HisTrap excel, HiTRAP chelating HP Ni column); not shown: His6, C-terminal, kept
Nature of the experiment: SPR; HpARI, HpARI_CCP1/2 or HpARI_CCP2/3 captured via the hexa-His tag and covalently stabilised on an NTA chip (400 RU); mIL-33 2.47-200 nM injected, single-cycle kinetics, 25 °C; 10 mM NaH2PO4 pH 7.5, 150 mM NaCl, 50 μM EDTA, 0.05% P20; global fit of a 1:1 model with mass transport. The note with it: both partners purified.

In experiment [2] the target is B1. The description is as above. The note with it: both partners purified.

Regarding B1, in experiment [1], binding was put at a Kd of 1.1 nM and the koff amounted to 0.00015 s⁻¹.

Take B2: in experiment [2], the Kd was 9.8 nM and the koff stood at 0.003 s⁻¹.

For B3, the Kd in experiment [2] was determined as 1.4 nM.
